PMC4955526 (2017)
Like-named read-outs stand apart in the source and are kept apart here.

T1: ALK3-Fc ECD (Homo sapiens, UniProt P36894)
T1 chain: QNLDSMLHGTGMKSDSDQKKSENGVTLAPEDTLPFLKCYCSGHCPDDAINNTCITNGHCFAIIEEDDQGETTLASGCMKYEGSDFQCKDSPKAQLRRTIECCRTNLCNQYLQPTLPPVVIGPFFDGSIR

T2: Cerberus-Fc (Homo sapiens, UniProt O95813)
T2 chain: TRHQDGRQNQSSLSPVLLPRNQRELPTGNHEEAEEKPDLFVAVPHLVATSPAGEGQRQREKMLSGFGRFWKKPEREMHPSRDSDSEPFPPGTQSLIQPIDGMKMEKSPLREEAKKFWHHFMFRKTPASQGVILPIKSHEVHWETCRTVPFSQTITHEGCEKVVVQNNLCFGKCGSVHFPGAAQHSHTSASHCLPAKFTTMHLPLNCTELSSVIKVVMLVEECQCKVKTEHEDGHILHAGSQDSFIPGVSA

T3: BMPRII-Fc ECD (Homo sapiens, UniProt Q13873)
T3 chain: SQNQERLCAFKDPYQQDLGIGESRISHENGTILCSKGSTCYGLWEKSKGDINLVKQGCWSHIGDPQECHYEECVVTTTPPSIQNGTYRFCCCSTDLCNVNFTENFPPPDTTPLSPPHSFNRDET

B1: Cerberus (protein)
chain: T2 chain
B2: BMP-4 (protein)
chain: SPKHHSQRARKKNKNCRRHSLYVDFSDVGWNDWIVAPPGYQAFYCHGDCPFPLADHLNSTNHAIVQTLVNSVNSSIPKACCVPTELSAISMLYLDEYDKVVLKNYQEMVVEGCGCR

Key:
BMP-4 [1] = target: B2; test: SPR competition vs ALK3-Fc
BMP-4 [2] = target: B2; test: SPR competition vs BMPRII-Fc
BMP-4 [3] = target: B2; test: SPR competition vs ActRIIA-Fc
BMP-4 [4] = target: B2; test: SPR competition vs Cerberus-Fc
BMP-4 [5] = target: B2; test: SPR competition vs ActRIIA-Fc
BMP-4 [6] = target: B2; test: SPR competition vs ALK3-Fc
BMP-4 [7] = target: B2; test: SPR competition vs ALK3-Fc
BMP-4 [8] = target: B2; test: SPR competition vs ALK3-Fc
BMP-4 [9] = target: B2; test: SPR competition vs BMPRII-Fc
BMP-4 [10] = target: B2; test: SPR competition vs BMPRII-Fc
BMP-4 [11] = target: B2; test: SPR competition vs BMPRII-Fc
BMP-4 [12] = target: B2; test: SPR competition vs ActRIIA-Fc
BMP-4 [13] = target: B2; test: SPR competition vs ActRIIA-Fc
BMP-4 [14] = target: B2; test: SPR competition vs ActRIIA-Fc
BMP-4 [15] = target: B2; test: SPR competition vs Cerberus-Fc
BMP-4 [16] = target: B2; test: SPR competition vs Cerberus-Fc
BMP-4 [17] = target: B2; test: SPR competition vs Cerberus-Fc
ALK3-Fc ECD = target: T1, ALK3-Fc ECD; test: SPR
ActRIIA-Fc ECD [18] = target: T4, ActRIIA-Fc ECD (Homo sapiens, UniProt P27037); test: SPR
T4 sequence (P27037 20-135): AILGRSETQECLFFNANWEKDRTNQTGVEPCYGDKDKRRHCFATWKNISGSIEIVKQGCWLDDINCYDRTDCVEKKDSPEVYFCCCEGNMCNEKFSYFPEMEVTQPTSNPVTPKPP

Cerberus-Fc [19] = target: T2, Cerberus-Fc; test: SPR
ActRIIA-Fc ECD [20] = target: T4, ActRIIA-Fc ECD; test: SPR; remark: listed apart in the source
Cerberus-Fc [21] = target: T2, Cerberus-Fc; test: SPR
BMPRII-Fc ECD = target: T3, BMPRII-Fc ECD; test: SPR

Binder: B1
IC50 (BMP-4 [1]): 134 nM
IC50 (BMP-4 [2]): 138 nM
IC50 (BMP-4 [3]): 56 nM
IC50 (BMP-4 [4]): 99.7 nM
IC50 (BMP-4 [5]): 58 nM
IC50 (BMP-4 [6]): 303 nM
IC50 (BMP-4 [7]): 289 nM
IC50 (BMP-4 [8]): 245 nM
IC50 (BMP-4 [9]): 132 nM
IC50 (BMP-4 [10]): 166 nM
IC50 (BMP-4 [11]): 153 nM
IC50 (BMP-4 [12]): 305 nM
IC50 (BMP-4 [13]): 266 nM
IC50 (BMP-4 [14]): 239 nM
IC50 (BMP-4 [15]): 46.6 nM
IC50 (BMP-4 [16]): 56.7 nM
IC50 (BMP-4 [17]): 57.6 nM

Binder: B2
Kd (ALK3-Fc ECD): 0.193 nM
Kd (ActRIIA-Fc ECD [18]): 2.85 nM
Kd (Cerberus-Fc [19]): 2.73 nM
Kd (ActRIIA-Fc ECD [20]): 3.26 nM
Kd (Cerberus-Fc [21]): 2.24 nM
Kd (BMPRII-Fc ECD): 8.13 nM
